From FireProtDB (doi:10.1021/bi00072a011)
Where “and” joins values, the source holds several entries; their conditions need not be identical. Equal entries are not always repeated.

B1: Tryptophan synthase alpha chain, P00929 (parent)
chain: MERYENLFAQLNDRREGAFVPFVTLGDPGIEQSLKIIDTLIDAGADALELGVPFSDPLADGPTIQNANLRAFAAGVTPAQCFEMLALIREKHPTIPIGLLMYANLVFNNGIDAFYARCEQVGVDSVLVADVPVEESAPFRQAALRHNIAPIFICPPNADDDLLRQVASYGRGYTYLLSRSGVTGAENRGALPLHHLIEKLKEYHAAPALQGFGISSPEQVSAAVRAGAAGAISGSAIVKIIEKNLASPKQMLAELRSFVSAMKAASRA

Variants of: B1
Details: Salmonella typhimurium (strain LT2 / SGSC1412 / ATCC 700720); pH 7.8; 25 °C; Urea; CD; Potassium phosphate 10 mM; transition: 3; structure 2WSY; whole UniProt chain shown

Variant: MERYENLFAQLNDRREGGFVPFVTLGDPGIEQSLKIIDTLIDAGADALELGVPFSDPLADGPTIQNANLRAFAAGVTPAQCFEMLALIREKHPTIPIGLLMYANLVFNNGIDAFYARCEQVGVDSVLVADVPVEESAPFRQAALRHNIAPIFICPPNADDDLLRQVASYGRGYTYLLSRSGVTGAENRGALPLHHLIEKLKEYHAAPALQGFGISSPEQVSAAVRAGAAGAVSGSAIVKIIEKNLASPKQMLAELRSFVSAMKAASRA [A18G I232V]
- denaturant m value: 0.9 kcal/mol/M and 1.6 kcal/mol/M
- denaturant midpoint (higher = more stable): 2.08 M and 3.46 M
- unfolding free energy: 1.9 kcal/mol and 5.6 kcal/mol

Variant: MERYENLFAQLNDRREGAFVPFVTLGDPGIEQSLKIIDTLIDAGADALELGVPFSDPLADGPTIQNANLRAFAAGVTPAQCFEMLALIREKHPTIPIGLLMYANLVFNNGIDAFYARCEQVGVDSVLVADVPVEESAPFRQAALRHNIAPIFICPPNADDDLLRQVASYGRGYTQLLSRSGVTGAENRGALPLHHLIEKLKEYHAAPALQGFGISSPEQVSAAVRAGAAGAISGSAIVKIIEKNLASPKQMLAELRSFVSAMKAASRA [Y175Q]
- denaturant m value: 2.9 kcal/mol/M and 2.7 kcal/mol/M
- denaturant midpoint (higher = more stable): 2.05 M and 2.91 M
- unfolding free energy: 6 kcal/mol and 7.9 kcal/mol

Variant: MERYENLFAQLNDRREGGFVPFVTLGDPGIEQSLKIIDTLIDAGADALELGVPFSDPLADGPTIQNANLRAFAAGVTPAQCFEMLALIREKHPTIPIGLLMYANLVFNNGIDAFYARCEQVGVDSVLVADVPVEESAPFRQAALRHNIAPIFICPPNADDDLLRQVASYGRGYTYLLSRSGVTGAENRGALPLHHLIEKLKEYHAAPALQGFGISSPEQVSAAVRAGAAGAISGSAIVKIIEKNLASPKQMLAELRSFVSAMKAASRA [A18G]
- ddG of mutation (higher = less stable): 4.1 kcal/mol
- denaturant m value: 1.7 kcal/mol/M
- denaturant midpoint (higher = more stable): 1.88 M
- unfolding free energy: 3.3 kcal/mol

Variant: MERYENLFAQLNDRREGVFVPFVTLGDPGIEQSLKIIDTLIDAGADALELGVPFSDPLADGPTIQNANLRAFAAGVTPAQCFEMLALIREKHPTIPIGLLMYANLVFNNGIDAFYARCEQVGVDSVLVADVPVEESAPFRQAALRHNIAPIFICPPNADDDLLRQVASYGRGYTYLLSRSGVTGAENRGALPLHHLIEKLKEYHAAPALQGFGISSPEQVSAAVRAGAAGAISGSAIVKIIEKNLASPKQMLAELRSFVSAMKAASRA [A18V]
- denaturant m value: 1.5 kcal/mol/M
- denaturant midpoint (higher = more stable): 3.77 M and 2.24 M
- unfolding free energy: 5.8 kcal/mol and 3.3 kcal/mol

Variant: MERYENLFAQLNDRREGAFVPFVTLGDPGIEQSLKIIDTLIDAGADALELGVPFSDPLADGPTIQNANLRAFAAGVTPAQCFEMLALIREKHPTIPIGLLMYANLVFNNGIDAFYARCEQVGVDSVLVADVPVEESAPFRQAALRHNIAPIFICPPNADDDLLRQVASYGRGYTYLLSRSGVTGAENRGALPLHHLIEKLKEYHAAPAVQGFGISSPEQVSAAVRAGAAGAISGSAIVKIIEKNLASPKQMLAELRSFVSAMKAASRA [L209V]
- ddG of mutation (higher = less stable): 3.4 kcal/mol and 2 kcal/mol
- denaturant m value: 1.7 kcal/mol/M and 1.1 kcal/mol/M
- denaturant midpoint (higher = more stable): 2.3 M and 3.44 M
- unfolding free energy: 4 kcal/mol and 3.8 kcal/mol

Variant: MERYENLFAQLNDRREGAFVPFVTLGDPGIEQSLKIIDTLIDAGADALELGVPFSDPLADGPTIQNANLRAFAAGVTPAQCFEMLALIREKHPTIPIGLLMYANLVFNNGIDAFYARCEQVGVDSVLVADVPVEESAPFRQAALRHNIAPIFICPPNADDDLLRQVASYGRGYTYLLSRSGVTGAENRGALPLHHLIEKLKEYHAAPALQGFGISSPEQVSAAVRAGAAGAVSGSAIVKIIEKNLASPKQMLAELRSFVSAMKAASRA [I232V]
- ddG of mutation (higher = less stable): 3.9 kcal/mol and 1.5 kcal/mol
- denaturant m value: 1.5 kcal/mol/M and 1.3 kcal/mol/M
- denaturant midpoint (higher = more stable): 2.31 M and 3.28 M
- unfolding free energy: 3.5 kcal/mol and 4.3 kcal/mol

Variant: MERYENLFAQLNDRREGAFVPFVTLGDPGIEQSLKIIDTLIDAGADALELGVPFSDPLADGPTIQNANLRAFAAGVTPAQCFEMLALIREKHPTIPIGLLMYANLVFNNGIDAFYARCEQVGVDSVLVADVPVEESAPFRQAALRHNIAPIFICPPNADDDLLRQVASYGRGYTQLLSRSGVTGAENRGALPLHHLIEKLKEYHAAPAVQGFGISSPEQVSAAVRAGAAGAISGSAIVKIIEKNLASPKQMLAELRSFVSAMKAASRA [Y175Q L209V]
- denaturant m value: 1.6 kcal/mol/M and 2.2 kcal/mol/M
- denaturant midpoint (higher = more stable): 2.23 M and 4.32 M
- unfolding free energy: 3.6 kcal/mol and 9.7 kcal/mol

Variant: MERYENLFAQLNDRREGVFVPFVTLGDPGIEQSLKIIDTLIDAGADALELGVPFSDPLADGPTIQNANLRAFAAGVTPAQCFEMLALIREKHPTIPIGLLMYANLVFNNGIDAFYARCEQVGVDSVLVADVPVEESAPFRQAALRHNIAPIFICPPNADDDLLRQVASYGRGYTYLLSRSGVTGAENRGALPLHHLIEKLKEYHAAPALQGFGISSPEQVSAAVRAGAAGAVSGSAIVKIIEKNLASPKQMLAELRSFVSAMKAASRA [A18V I232V]
- denaturant m value: 2.1 kcal/mol/M and 1.8 kcal/mol/M
- denaturant midpoint (higher = more stable): 2.12 M and 3.73 M
- unfolding free energy: 4.4 kcal/mol and 6.8 kcal/mol
